Drawing on publication PMC10412585 (2023), this text covers Kd for 2 molecules.

Test [1] concerns the target GTF3C5_(293-301) HLA-E single chain trimer (soluble, biotinylated) (human, biotin (AviTag)). In words: SPR; weak binder not approaching saturation, inexact. On the technique in general: SPR reads the build-up and loss of mass on a sensor chip optically.
Test [2] has as its target AKAP6_(388-396) HLA-E single chain trimer (soluble, biotinylated) (human, biotin (AviTag)). In words: SPR.
For test [3], the target named is PISD_(55-63) HLA-E single chain trimer (soluble, biotinylated) (human, biotin (AviTag)). In words: SPR.
In test [4] the target is CREB3L1_(419-427) HLA-E single chain trimer (soluble, biotinylated) (human, biotin (AviTag)). The test can be described thus: SPR.
Test [5] has as its target … peptide HLA-E single chain trimer (soluble, biotinylated) (human, biotin (AviTag)). In words: SPR.
Test [6] concerns the target BFAR_(263-271) HLA-E single chain trimer (soluble, biotinylated) (human, biotin (AviTag)). The test can be described thus: SPR.

B1: CD94/NKG2A single-chain fusion protein (human NKG2A ectodomain - GGSGGS - human CD94 ectodomain), produced in Hi5 cells for SPR (receptor)
chain: not shown
Take B1: the Kd (usually the equilibrium constant for the complex coming apart) is roughly 28.1 µM in test [1]; roughly 4.1 µM in test [2]; roughly 12.1 µM in test [3]; roughly 3.3 µM in test [4]; roughly 8.9 µM in test [5]; roughly 0.8 µM in test [6].

B2: CD94/NKG2C single-chain fusion protein (human NKG2C ectodomain - GGSGGS - human CD94 ectodomain), produced in Hi5 cells for SPR (receptor)
chain: not shown
For the molecule B2, the Kd was roughly 92.4 µM in test [1]; roughly 15.6 µM in test [2]; roughly 16 µM in test [3]; roughly 9.8 µM in test [4]; roughly 23.8 µM in test [5]; roughly 1.8 µM in test [6].
